Measurements as given in US6927041B2, “Human neuropeptide Y-like G protein-coupled receptor” (Bayer Corporation, priority 2000, dated 2005).
Where no end group is shown, it is not given here.

Target: T1, human NPY-like GPCR (Homo sapiens, UniProt Q96P65)
T1 construct: expressed in transfected cells; host or cells: HEK293 (human embryonic kidney 293) cells, membrane preparation
T1 sequence (Q96P65 1-431): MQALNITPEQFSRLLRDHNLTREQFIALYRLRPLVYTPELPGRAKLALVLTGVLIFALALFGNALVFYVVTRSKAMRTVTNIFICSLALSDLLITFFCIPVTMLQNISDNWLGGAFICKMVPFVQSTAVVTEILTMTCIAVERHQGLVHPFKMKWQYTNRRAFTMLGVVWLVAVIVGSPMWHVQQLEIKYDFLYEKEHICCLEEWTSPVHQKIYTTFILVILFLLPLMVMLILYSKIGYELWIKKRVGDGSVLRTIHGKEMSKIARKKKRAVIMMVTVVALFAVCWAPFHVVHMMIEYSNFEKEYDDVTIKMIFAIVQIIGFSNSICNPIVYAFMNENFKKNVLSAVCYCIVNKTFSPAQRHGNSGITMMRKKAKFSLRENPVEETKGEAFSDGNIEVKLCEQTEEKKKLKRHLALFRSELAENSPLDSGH
Assay: Binding affinity of known peptides for the human NPY-like GPCR
Settings: human neuropeptide Y-like G protein-coupled receptor (SEQ ID NO:2); qualitative statement
Method: Human embryonic kidney 293 cells transfected with a polynucleotide that expresses human NPY-like GPCR are scraped from a culture flask into 5 ml of Tris HCl, 5 mM EDTA, pH 7.5, and lysed by sonication. Cell lysates are centrifuged at 1000 rpm for 5 minutes at 4° C. The supernatant is centrifuged at 30,000×g for 20 minutes at 4° C. The pellet is suspended in binding buffer containing 50 mM Tris HCl, 5 mM MgSO4, 1 mM EDTA, 100 mM NaCl, pH 7.5, supplemented with 0.1% BSA, 2 μg/ml aprotinin, […], and 10 μg/ml phosphoramidon. Optimal membrane suspension dilutions, defined as the protein concentration required to bind less than 10% of the added radioligand, are added to 96-well polypropylene microtiter plates containing ^125I-labeled ligand or test compound, non-labeled peptides, and binding buffer to a final volume of 250 μl.
In equilibrium saturation binding assays, membrane preparations are incubated in the presence of increasing concentrations (0.1 nM to 4 nM) of ^125I-labeled ligand or test compound (specific activity 2200 Ci/mmol). The binding affinities of different test compounds are determined in equilibrium competition binding assays, using 0.1 nM ^125I-peptide in the presence of twelve different concentrations of each test compound.
Binding reaction mixtures are incubated for one hour at 30° C. […] Radioactivity is measured by scintillation counting, and data are analyzed by a computerized non-linear regression program.
Non-specific binding is defined as the amount of radioactivity remaining after incubation of membrane protein in the presence of 100 nM of unlabeled peptide. Protein concentration is measured by the Bradford method using Bio-Rad Reagent, with bovine serum albumin as a standard. A test compound which […] the radioactivity of membrane protein by at least 15% relative to radioactivity of membrane protein that was not incubated with a test compound is identified as a compound which binds to a human NPY-like GPCR polypeptide.

Binding affinity for the receptor, do not appear to have binding affinity:
Neuropeptide Y
peptide YY: peptide that stimulates the Y1 receptor
orexin-A (QPLPDCCRQKTCSCRLYELLHGAGNHAAGILTL; ends and bridges not checked; cysteine pairing not given here; UniProt O43612 34-66, looked up)
